B1: Ribonuclease, P00648 (parent)
chain: MMKMEGIALKKRLSWISVCLLVLVSAAGMLFSTAAKTETSSHKAHTEAQVINTFDGVADYLQTYHKLPDNYITKSEAQALGWVASKGNLADVAPGKSIGGDIFSNREGKLPGKSGRTWREADINYTSGFRNSDRILYSSDWLIYKTTDHYQTFTKIR

In the data set the parent is B1. The settings on record: Bacillus amyloliquefaciens, pH 6.3, Thermal, DSC, MES 50 mM, structure 1BNI, whole UniProt chain shown; for ddG of mutation (higher = less stable): 54.1 °C.

As to G99V, the “ddG of mutation (higher = less stable)” value came out at 8.4 kcal/mol; the melting temperature (Tm) was 33 °C; the “change of melting temperature, mutant - wild type (higher = more stable)” value was -21.1 °C.
For G99A, the “ddG of mutation (higher = less stable)” value was found to be 5.3 kcal/mol.
Consider G100V, for which the “ddG of mutation (higher = less stable)” value was determined as 7.8 kcal/mol; the Tm worked out at 34.5 °C; the “change of melting temperature, mutant - wild type (higher = more stable)” value was -19.6 °C.
The matching figures for G100A: 3.4 kcal/mol, 45.5 °C and -8.6 °C.

By Tm is commonly meant the temperature at the midpoint of the melting transition.
